Measurements from patent publication EP4717706A1.

B1: AVR21 with I366F, D435A (receptor)
chain: MGSAGESDQITLPKHEAQLNVYVLLVPPKGEASTYDWQLITHPRDYSGEMEGEHSQFLKLSNLTPGLYEYRAVVEGQNAHSEGYVNVTVEPEPRKNRPPIAIVSPQFQEISLPTTSTVIDGSQSTADDKIVQYHWEELKGPLREEKISEDTAILKLSQLVPGNYTFRLTVVDTDGATDSTTADLTVNKAVDHHHHHH
B2: AVR21 with E378G (receptor)
chain: MGSAGESDQITLPKHEAQLNVYVLLVPPKGEASTYDWQLITHPRDYSGEMEGEHSQILKLSNLTPGLYGYRAVVEGQNAHSEGYVNVTVEPEPRKNRPPIAIVSPQFQEISLPTTSTVIDGSQSTDDDKIVQYHWEELKGPLREEKISEDTAILKLSQLVPGNYTFRLTVVDTDGATDSTTADLTVNKAVDHHHHHH
B3: AVR21 with I(V)382I (receptor)
chain: MGSAGESDQITLPKHEAQLNVYVLLVPPKGEASTYDWQLITHPRDYSGEMEGEHSQILKLSNLTPGLYEYRAIVEGQNAHSEGYVNVTVEPEPRKNRPPIAIVSPQFQEISLPTTSTVIDGSQSTDDDKIVQYHWEELKGPLREEKISEDTAILKLSQLVPGNYTFRLTVVDTDGATDSTTADLTVNKAVDHHHHHH
B4: AVR21 with F(Y)379S (receptor)
chain: MGSAGESDQITLPKHEAQLNVYVLLVPPKGEASTYDWQLITHPRDYSGEMEGEHSQILKLSNLTPGLYESRAVVEGQNAHSEGYVNVTVEPEPRKNRPPIAIVSPQFQEISLPTTSTVIDGSQSTDDDKIVQYHWEELKGPLREEKISEDTAILKLSQLVPGNYTFRLTVVDTDGATDSTTADLTVNKAVDHHHHHH
B5: AVR21 with V412A (receptor)
chain: MGSAGESDQITLPKHEAQLNVYVLLVPPKGEASTYDWQLITHPRDYSGEMEGEHSQILKLSNLTPGLYEYRAVVEGQNAHSEGYVNVTVEPEPRKNRPPIAIASPQFQEISLPTTSTVIDGSQSTDDDKIVQYHWEELKGPLREEKISEDTAILKLSQLVPGNYTFRLTVVDTDGATDSTTADLTVNKAVDHHHHHH
B6: AVR21 with N329S, K368R, V412A (receptor)
chain: MGSAGESDQITLPKHEAQLSVYVLLVPPKGEASTYDWQLITHPRDYSGEMEGEHSQILRLSNLTPGLYEYRAVVEGQNAHSEGYVNVTVEPEPRKNRPPIAIASPQFQEISLPTTSTVIDGSQSTDDDKIVQYHWEELKGPLREEKISEDTAILKLSQLVPGNYTFRLTVVDTDGATDSTTADLTVNKAVDHHHHHH
B7: AVR21 with V332A (receptor)
chain: MGSAGESDQITLPKHEAQLNVYALLVPPKGEASTYDWQLITHPRDYSGEMEGEHSQILKLSNLTPGLYEYRAVVEGQNAHSEGYVNVTVEPEPRKNRPPIAIVSPQFQEISLPTTSTVIDGSQSTDDDKIVQYHWEELKGPLREEKISEDTAILKLSQLVPGNYTFRLTVVDTDGATDSTTADLTVNKAVDHHHHHH
B8: AVR21 with T397S (receptor)
chain: MGSAGESDQITLPKHEAQLNVYVLLVPPKGEASTYDWQLITHPRDYSGEMEGEHSQILKLSNLTPGLYEYRAVVEGQNAHSEGYVNVSVEPEPRKNRPPIAIVSPQFQEISLPTTSTVIDGSQSTDDDKIVQYHWEELKGPLREEKISEDTAILKLSQLVPGNYTFRLTVVDTDGATDSTTADLTVNKAVDHHHHHH
B9: AVR21 with L321Q, T343S (receptor)
chain: MGSAGESDQITQPKHEAQLNVYVLLVPPKGEASSYDWQLITHPRDYSGEMEGEHSQILKLSNLTPGLYEYRAVVEGQNAHSEGYVNVTVEPEPRKNRPPIAIVSPQFQEISLPTTSTVIDGSQSTDDDKIVQYHWEELKGPLREEKISEDTAILKLSQLVPGNYTFRLTVVDTDGATDSTTADLTVNKAVDHHHHHH
B10: AVR21 with L321Q (receptor)
chain: MGSAGESDQITQPKHEAQLNVYVLLVPPKGEASTYDWQLITHPRDYSGEMEGEHSQILKLSNLTPGLYEYRAVVEGQNAHSEGYVNVTVEPEPRKNRPPIAIVSPQFQEISLPTTSTVIDGSQSTDDDKIVQYHWEELKGPLREEKISEDTAILKLSQLVPGNYTFRLTVVDTDGATDSTTADLTVNKAVDHHHHHH
B11: AVR21 with L376P (receptor)
chain: MGSAGESDQITLPKHEAQLNVYVLLVPPKGEASTYDWQLITHPRDYSGEMEGEHSQILKLSNLTPGPYEYRAVVEGQNAHSEGYVNVTVEPEPRKNRPPIAIVSPQFQEISLPTTSTVIDGSQSTDDDKIVQYHWEELKGPLREEKISEDTAILKLSQLVPGNYTFRLTVVDTDGATDSTTADLTVNKAVDHHHHHH
B12: AVR21 with E(V)335A (receptor)
chain: MGSAGESDQITLPKHEAQLNVYVLLAPPKGEASTYDWQLITHPRDYSGEMEGEHSQILKLSNLTPGLYEYRAVVEGQNAHSEGYVNVTVEPEPRKNRPPIAIVSPQFQEISLPTTSTVIDGSQSTDDDKIVQYHWEELKGPLREEKISEDTAILKLSQLVPGNYTFRLTVVDTDGATDSTTADLTVNKAVDHHHHHH
B13: AVR21 with D500N (receptor)
chain: MGSAGESDQITLPKHEAQLNVYVLLVPPKGEASTYDWQLITHPRDYSGEMEGEHSQILKLSNLTPGLYEYRAVVEGQNAHSEGYVNVTVEPEPRKNRPPIAIVSPQFQEISLPTTSTVIDGSQSTDDDKIVQYHWEELKGPLREEKISEDTAILKLSQLVPGNYTFRLTVVDTDGATDSTTADLTVNKAVNHHHHHH
B14: AVR21 with N329K, E401G (receptor)
chain: MGSAGESDQITLPKHEAQLKVYVLLVPPKGEASTYDWQLITHPRDYSGEMEGEHSQILKLSNLTPGLYEYRAVVEGQNAHSEGYVNVTVEPGPRKNRPPIAIVSPQFQEISLPTTSTVIDGSQSTDDDKIVQYHWEELKGPLREEKISEDTAILKLSQLVPGNYTFRLTVVDTDGATDSTTADLTVNKAVDHHHHHH
B15: AVR21 with L367P (receptor)
chain: MGSAGESDQITLPKHEAQLNVYVLLVPPKGEASTYDWQLITHPRDYSGEMEGEHSQIPKLSNLTPGLYEYRAVVEGQNAHSEGYVNVTVEPEPRKNRPPIAIVSPQFQEISLPTTSTVIDGSQSTDDDKIVQYHWEELKGPLREEKISEDTAILKLSQLVPGNYTFRLTVVDTDGATDSTTADLTVNKAVDHHHHHH
B16: AVR21 with K(N)371S, E453D, S466T (receptor)
chain: MGSAGESDQITLPKHEAQLNVYVLLVPPKGEASTYDWQLITHPRDYSGEMEGEHSQILKLSSLTPGLYEYRAVVEGQNAHSEGYVNVTVEPEPRKNRPPIAIVSPQFQEISLPTTSTVIDGSQSTDDDKIVQYHWEELKGPLRDEKISEDTAILKLTQLVPGNYTFRLTVVDTDGATDSTTADLTVNKAVDHHHHHH
B17: AVR21 with E(V)335A, V394I (receptor)
chain: MGSAGESDQITLPKHEAQLNVYVLLAPPKGEASTYDWQLITHPRDYSGEMEGEHSQILKLSNLTPGLYEYRAVVEGQNAHSEGYINVTVEPEPRKNRPPIAIVSPQFQEISLPTTSTVIDGSQSTDDDKIVQYHWEELKGPLREEKISEDTAILKLSQLVPGNYTFRLTVVDTDGATDSTTADLTVNKAVDHHHHHH
B18: AVR21 with L376P, P402S (receptor)
chain: MGSAGESDQITLPKHEAQLNVYVLLVPPKGEASTYDWQLITHPRDYSGEMEGEHSQILKLSNLTPGPYEYRAVVEGQNAHSEGYVNVTVEPESRKNRPPIAIVSPQFQEISLPTTSTVIDGSQSTDDDKIVQYHWEELKGPLREEKISEDTAILKLSQLVPGNYTFRLTVVDTDGATDSTTADLTVNKAVDHHHHHH
B19: AVR21 with E384D, V396E (receptor)
chain: MGSAGESDQITLPKHEAQLNVYVLLVPPKGEASTYDWQLITHPRDYSGEMEGEHSQILKLSNLTPGLYEYRAVVDGQNAHSEGYVNETVEPEPRKNRPPIAIVSPQFQEISLPTTSTVIDGSQSTDDDKIVQYHWEELKGPLREEKISEDTAILKLSQLVPGNYTFRLTVVDTDGATDSTTADLTVNKAVDHHHHHH
B20: AVR21 with L328P, V394A (receptor)
chain: MGSAGESDQITLPKHEAQPNVYVLLVPPKGEASTYDWQLITHPRDYSGEMEGEHSQILKLSNLTPGLYEYRAVVEGQNAHSEGYANVTVEPEPRKNRPPIAIVSPQFQEISLPTTSTVIDGSQSTDDDKIVQYHWEELKGPLREEKISEDTAILKLSQLVPGNYTFRLTVVDTDGATDSTTADLTVNKAVDHHHHHH
B21: AVR21 with L369S (receptor)
chain: MGSAGESDQITLPKHEAQLNVYVLLVPPKGEASTYDWQLITHPRDYSGEMEGEHSQILKSSNLTPGLYEYRAVVEGQNAHSEGYVNVTVEPEPRKNRPPIAIVSPQFQEISLPTTSTVIDGSQSTDDDKIVQYHWEELKGPLREEKISEDTAILKLSQLVPGNYTFRLTVVDTDGATDSTTADLTVNKAVDHHHHHH
B22: AVR21 with T397A (receptor)
chain: MGSAGESDQITLPKHEAQLNVYVLLVPPKGEASTYDWQLITHPRDYSGEMEGEHSQILKLSNLTPGLYEYRAVVEGQNAHSEGYVNVAVEPEPRKNRPPIAIVSPQFQEISLPTTSTVIDGSQSTDDDKIVQYHWEELKGPLREEKISEDTAILKLSQLVPGNYTFRLTVVDTDGATDSTTADLTVNKAVDHHHHHH
B23: AVR21 with T426A (receptor)
chain: MGSAGESDQITLPKHEAQLNVYVLLVPPKGEASTYDWQLITHPRDYSGEMEGEHSQILKLSNLTPGLYEYRAVVEGQNAHSEGYVNVTVEPEPRKNRPPIAIVSPQFQEISLPTTSAVIDGSQSTDDDKIVQYHWEELKGPLREEKISEDTAILKLSQLVPGNYTFRLTVVDTDGATDSTTADLTVNKAVDHHHHHH
B24: AVR21 with L367P, V412A (receptor)
chain: MGSAGESDQITLPKHEAQLNVYVLLVPPKGEASTYDWQLITHPRDYSGEMEGEHSQIPKLSNLTPGLYEYRAVVEGQNAHSEGYVNVTVEPEPRKNRPPIAIASPQFQEISLPTTSTVIDGSQSTDDDKIVQYHWEELKGPLREEKISEDTAILKLSQLVPGNYTFRLTVVDTDGATDSTTADLTVNKAVDHHHHHH

molecular target: VLP2 (virus-like particles, capsid protein particles of AAV serotype 2) (AAV serotype 2 (AAV2)) (UniProt P03135); assay: ELISA on immobilised VLP2 (culture supernatant, anti-His detection); A450 after 1:1 0.5 M NaOH, 30 min, 30°C divided by A450 untreated
Chain of UniProt P03135 (P03135 whole entry): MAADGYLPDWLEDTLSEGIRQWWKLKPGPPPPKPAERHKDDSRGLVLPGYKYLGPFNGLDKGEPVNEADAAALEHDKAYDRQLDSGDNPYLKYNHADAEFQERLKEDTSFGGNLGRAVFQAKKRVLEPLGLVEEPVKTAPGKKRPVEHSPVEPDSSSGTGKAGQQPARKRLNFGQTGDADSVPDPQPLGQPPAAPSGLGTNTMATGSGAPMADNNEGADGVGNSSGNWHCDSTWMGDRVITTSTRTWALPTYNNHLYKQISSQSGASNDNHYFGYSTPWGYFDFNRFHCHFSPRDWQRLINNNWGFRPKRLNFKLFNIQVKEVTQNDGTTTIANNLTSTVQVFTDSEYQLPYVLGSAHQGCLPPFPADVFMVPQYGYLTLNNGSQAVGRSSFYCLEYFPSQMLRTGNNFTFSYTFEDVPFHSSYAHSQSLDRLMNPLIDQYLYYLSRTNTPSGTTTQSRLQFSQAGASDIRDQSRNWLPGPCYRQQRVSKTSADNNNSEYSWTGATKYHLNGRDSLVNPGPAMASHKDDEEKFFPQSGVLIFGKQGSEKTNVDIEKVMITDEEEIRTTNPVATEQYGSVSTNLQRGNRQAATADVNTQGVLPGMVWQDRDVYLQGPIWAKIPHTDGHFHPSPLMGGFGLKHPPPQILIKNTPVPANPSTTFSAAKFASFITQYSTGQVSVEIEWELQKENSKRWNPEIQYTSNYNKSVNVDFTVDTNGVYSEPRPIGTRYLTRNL

Binder	Remaining activity [%]
B1	38.4%
B2	58%
B3	32.8%
B4	54.9%
B5	32.5%
B6	37.1%
B7	57.6%
B8	38.4%
B9	50.4%
B10	34.2%
B11	42.6%
B12	35.8%
B13	39.3%
B14	43.1%
B15	35.7%
B16	57.3%
B17	37.3%
B18	35.1%
B19	45.3%
B20	40.5%
B21	51.4%
B22	40.4%
B23	43.5%
B24	35.8%
